In the DeepSol protein solubility set:

Test: soluble on expression in E. coli; label from the status in PepcDB or PDB records

| Sequence | soluble on expression in E. coli |
| --- | --- |
| MAHHHHHHMSVATEMKVEEGIHLCGDQEFKLEDISSCVSEIFEKKKKYENIPFIQVAPMINVTNRHFRALVRTITRRAQVWTEMIVDNTLLYNLNNLEEHLGFNSNEHPIVCQLGGSDATSLAEAAVLVEQAGYDEINLNVGCPSTKVANKGAFGAYLMKKPEHVRNIVYEIKRKVHIPVSVKIRTGVDDCDSFPFLRSFVECISSVGCSHFIVHARKAWLKGLDPKQNRSVPPLEYPKVYSLCQLYPHLKFTLNGGVKTVEEAVALLNGYLPKKGNVDSEKTYVQVKNYQVNPLHGVMLGRACMENTTVLSQTDQLVYNEKPPHTAFSRRTVLDAYKSYLEENSSLCSLSSAFELLKPVLGILKGMPGHRIFRNKLDMYIRNYASTLPCSGILEKAMVDVDAVAPGCLDLPLADYKLQQEYIKNY | not soluble |
| MAHHHHHHMTDPTRRDPTEFLRVLRRMSNTTSWQKAMIFASKGRMVGYRLTLEHYNTVLYSQSMWGRALEMIKVIRAMQQDGVQPNGATYYYIVNGMANAEHGYNYDFNINHRLEKLQHWRVALNALQACEANGFDSTDTMHNSVIVTMTIPGMNHWREALQVLKKIIDEDRQLHPNMVRFLHDCLIRNYRPREASDLLRCAAERGVKGYETAWETDVYKGKPTDAQLEASQAEAAVTDAAGTECVAGSSGALSSSTSDCKKAAHNSAQASAAATLMALQLRGDQTLPPPQMRSALQEEMERSITAERQALRPFTAGLHYTEMRSVFRPRVHRQLWYQWHQIANRYRPTASLKRRQLAPRDSPTGIPAWNRL | not soluble |
| MAHHHHHHMTELLSAGEVQHPCGWAFAFPFVKRVPPAKLVRLLGTATLLDRIRENDPTLRSVRLDYELLPREEIMQALLGNNTISSVVIARVIPRNSTGTDFARFLESLYHLPLRSVQVQDGEKLPSSYLNHLLYLVEYCSGVGKACKWTDGKCYAGADLNTGNTTTEINDAEEFNGNNSREDVDSEVLDYKRGAVLEFVDFSGCRLTVRQAQWLGDILFHRRCTLRHVNACECRLGNGGVRALLRRVNTSPRLKAASIAEGSVVPLDMIELRWNGVTEDESIRNFVDVVERSPDCWTCMTVYGNYISPHMYTRCEAQVVKAKRLMEEERLKRREIPTNVEVAQPDGRLSSEKGTSCSPRRYFVDLLTSVAGEVDFVCPSLRAVSSLLHEEP | not soluble |
| MAHHHHHHMTENFLIFGLPFLPQCNDTLPSSQFKCLVAEMGPLGQALRPFVVPTLKVGTLDSLIEASDELAKLDPQLENNVEKLIALMEETSQKPRSVVSALRINQTQEMTPAAYIKNFLWSSAQFDTREKIQSLIEKLSQISASIEERIRVLLSEYNETRNRLTAVNRKTQGNLSVKPIRELVASYNQKFQCFVDTEMLVTLFVVVPLASQKEWLETYWSLNEFVCPQSNRVIAEDKECVLNSIVTFRKAMDDVKMICRKKRFTVRDIDGVDDLSVAEVKELNQKAEKERKALYTVLWQQYSLCYVAWVHVKALRVFVESLLKYGLPPRCISVVLQVDGKKEAEIRKKILQIYPNLISPLTNEPPTDTGMLQYEYPYVSLKVTNFQKD | not soluble |
| MAHHHHHHMTILSLHGRNGADAQKWFESGLLPFPGGQKSFEMVSVMPALVYHHCMLYWAKLGCAALLQEGSVEMTGKAGSETLMFVVRNICCIQIAESPRCLPNWRLLDRVLDELLKRLDFVANCEDGVWSFASTTMRRMQCYLRSNIIRYLEVRDRPLEGQCGLLRYRGAFDCAINGVNSSGASGMGGCQTTDEVHVEVLSAETLRSAVQVMCGCDGVKVPCGDSSGGVKDGADALADLELEEFFCRYFLCSAPAAFDQPTKPTVRE | not soluble |
| MAHHHHHHMTLTSRTAQAAHAQNDVAAQRPPPPLYPSMNVGASAVHPHQNRPCHAYDSQPAWQNPQLGTAPPAVIAGAPLAPEQQQQQTHQQGRSNQPQSIFGGRFTLLDRLGSGGFGEVYRAEECDQLVPLAVKVERVTDTNALPEQSFLFHEAKVMQEIHKSIQAYMAAQQQHQLLRLQQEKAQSGNGRRANNEAAAAADEVRQEKVGIAKLKYYGQDGMSRVLIMSLHGQSVANVHRHQGRLSLFATVMIADQVLRSLEHVHRAGYVHADLKPDNILLGREDPEQLYLVDFGLSVHFRDRKGKHRPLVTNHSFVGTPRYASLRTHMGHTLSRRDDIEQLVYVMIYLFRGRLPWSGLRISDPDAKEKRIAQMKAEMTLDSICAGCPEAFRDVLNYARCMEFEEEPQYQFLHVLLCSLRDSCTELSSDPSCVPANGSGGVMPQMLTLNVNCSTRQHPKDQNGGDAAANGGAVGVTAAEAGLVQNTNIVSGVVEQIDGVAENPMMMSSRGTGAPAFFSDAIGQGFLSGNGTDAGPLSPRIDCLNGQPFSPPPLDLQRPCGSPQLRQMR | not soluble |
| MAHHHHHHMTTTASPQTGSSPTVPTPVAPPSIDEALSYWIGLSRLIHRVCVTSDSTPSADEGEPSTFTRYALHCVLLCCGIKQHRVRQTADHMLAQLLSAAYTTAAALTGPVVLLDSESPASTPFRSPVRQLPVPLPVLVADWLKQSSADDQKASQHNRYCLRVPAVTWTRSIIKWLGSELRGQMISLRPLSRWNMVCAQQSGRMPVVIFVGGASGAGKSTLASLVASQLRVPNVLSTDTVRQVLRARLCGHEAQFPALFVSTYEAHKVTADDSHASADDGSAVPHAQSADENAIVQGYEAQCELVLRVLDGMLARLLARRESIVVEGVHLLPRYLAAKRAELLVSRVACVPVLVRIPKADSHLERLCIRARGMSMRAQNNKYIASFKAIRAIQAHLVDSVEAASLPVLVLSNTNMDKSFTALHHTLLETMEYAAVHGWPADAAAAADVPLTGLVFRAVKDRLVAVVRQRRWRRSATNDNISTSSGTGASAPGDEEKGGVATGPFSALVLAPHARPPVHSPAGSSNGAAPRARSAELLGVVQRCLLEQGLRYHSRTSNAQVDAATVYGSSGVLGARDASSRFHAHVVIRRSFTIAAKSHISMTASSHLPLDNHNEEFDELEIPSLIGS | not soluble |
| MAHHHHHHMTTYTLVLLRHGESTWNKENKFTGWTDVPLSEKGEEEAIAAGKYLKEKNFKFDVVYTSVLKRAICTAWNVLKTADLLHVPVVKTWRLNERHCGSLQGLNKSETAKKYGEEQVKIWRRSYDIPPPKLDKEDNRWPGHNVVYKNVPKDALPFTECLKDTVERVLPFWFDHIAPDILANKKVMVAAHGNSLRGLVKHLDNLSEADVLELNIPTGVPLVYELDENLKPIKHYYLLDSEELKKKMDEVANQGKAK | soluble |
| MAHHHHHHMVEEVTIGRDFVTVRRVDDDDTAAAVRQYAVRLGGNPTATPEETAERSAALQRKVMDAMEENCEQVKTLSGRNDPNESVDGGGENTEDNLGSQGGVALDSVDEAALRDLVRSTHWSELKLHVSALLTDHLYSGRAHIDADAPHPHPDTIPQDGDSEVVVVLKELISTTIRPQLQADGGDIRFVGLADSVMLVEMLGACRKCRSSKTTLRDMIERTTRHWVPEVQKVEEVER | not soluble |
| MAHHHHHHMVENKSKVKDISLAPFGKMQMEISENEMPGLMRIREEYGKDQPLKNAKITGCLHMTVECALLIETLQKLGAQIRWCSCNIYSTADYAAAAVSTLENVTVFAWKNETLEEYWWCVESALTWGDGDDNGPDMIVDDGGDATLLVHKGVEYEKLYEEKNILPDPEKAKNEEERCFLTLLKNSILKNPKKWTNIAKKIIGVSEETTTGVLRLKKMDKQNELLFTAINVNDAVTKQKYDNVYGCRHSLPDGLMRATDFLISGKIVVICGYGDVGKGCASSMKGLGARVYITEIDPICAIQAVMEGFNVVTLDEIVDKGDFFITCTGNVDVIKLEHLLKMKNNAVVGNIGHFDDEIQVNELFNYKGIHIENVKPQVDRITLPNGNKIIVLARGRLLNLGCATGHPAFVMSFSFCNQTFAQLDLWQNKDTNKYENKVYLLPKHLDEKVALYHLKKLNASLTELDDNQCQFLGVNKSGPFKSNEYRY | soluble |
| MAHHHHHHMVFDVNGDFVENEQQFIEAARKSINLTIKLQNTSGMSELIARVLEDDDRRASGAISTSALDFDELLRTTPRFNFLSGDHPIFRRYNKRLAQQRQAAALIAQRTAEAELQRQAEIKERLRKALEEEAAVQKKKEQEKAELQRMRAAQEPARFVPEEPFLKIIKDESSFGQVERELKKPETAAEPKVESKAEGAASEAITNTATGTSTTLSNDVAATISAEELLVLVGVPTETMETTTPALEDLAEAIALPSSENTATYVALPAEEYTLCSGERVVSVIKKRSGPIPAPPPGTPPVINKAAASRLSEPVKRVKPVEKMVRNCTPSNEQPYKSRHRSRSPRSRRRSERDHSSKECSRRHRRDEPSSHRHHKNSRDSKHRR | not soluble |
| MAHHHHHHMVHKKQAWAKRVKKERFKKKFLTRMQATRLLQMESVQFRRLCILKGIYPRALNRSKQKQSGNEKQYYLAREIKWLVRDQIAEKMMAYRAWEKKVKRAEAMGRSEDLKVLQTSRVKPRHSLVATIKERYPYFIDAIRDVDDAMSMIHLYAFLSPEIKSDTTIEIHHSLTSGLSERAKEVCERWDRYVARARVLTKGFISIKGYYYEAIVKGERVRWLCPHEYAHRFPPGIQQYVMLSFLEFYLEMMKFVLFKLESDLARDEADRLAAEDEEGVTRANAEDFANGAALAVLDVGANQAQAKAVKEAESKRSLMEEELHKVRELFRGLTFFISREVPAKHFALVINACGGRVATDYVPSNITHVVVDRPALPPGMKKHDQLEYVQPQYIFDCLNARLVLPVTGYRIGEELPPHVSPFSVSITNSAEDNAAVVQVKKDHPRIVGYVPARVHEIRKLINPSYSAVDPEGKVAHLEDEYSDEESHVAVPEMDMEDDVSLSGDELAEARRKPAWQEEEVTEEVQRPKLSAFKVKKQREMNLMNAPTNEVVARRRQALRKAQEKSRQTETSEARLQRKMSEVKRQEAATRKMQLQVARKKAARFYKMVSGVVQGTAKKVATLEAKAKHIAEGKLRKTEDGKGLVNKRLEARRQRAEAKGKKLKERKAGNPYKKLPKWVQ | not soluble |
| MAHHHHHHMVQVVHRHGERSALINDNKTEICGTLYPCGELTGERVKMVRAIGEFARSRYNDLSLVESPLCPSTQYNSSLVYTRPTHTQRTIQSATAFLHSLFQDDYFYPVAYSVNRTTDMLLSTDAVPSVVGRSWLDNQAVYPGLMEVNAAWFKYVFSWNHTSKLDLTQGSASQNLEQAMLANINAPPRLSPSYNMFHYSAHDTTVTPFAATFGDQGNTTMHPPFAVTSFVALLQDTADASGWYVRLIRSNPVKVASGTYVFRQTGIAVHCFDATGNRYRVSTGICPLDDFRRMVDHSRPAVADGHSAMTHAQYSNMGSPRTIADNKLVPLRCWIYRYACPSKSCPGSYILSAVDHQCYPQTDIPNSSSSEGTSSSDVSSFKKPANWMPRVSSPEKSRHIAADILRGVTNGVTVGAAVRKHDEYRRHC | not soluble |
| MAHHHHHHMYGDKGPPKGYSVPRFDTNASKRCQTCSSTVHWTFECPLKNSATLSAKKSAATTVKLSPSQMLRYGIKQKSANFVSEPTEREVFDAELRELRSVLTAEVRQELKAKKSAAHKSGNDCKKHEAPLPSAAPKKEPPSDSVTMKTERTEEEE | soluble |
| MAHHHHHHMYSFSPVTPGKTAASPANDLVSSSSNSNGELVDDIKESLDRIEKLLNRGQQLLYGDGAADGKKAYSEGAAVTPDGEPADADTVSIPTARHVDANCGSYQLPSDTHVGLPLRGTGTSAAANASLYPQSTSQHSASHFQRNSEKLYQRLSGESNHRYPSQNGSNRSSLHARPHANRASVGSNRLPPGFKDKVLVSVRGRRIVQIQKEGGIVPNFEEGLDAHDTPQNFTIEELKARIHRELEEYRRLGPLMNRYKSFRRRQCVTVAKRAPMMKIASRTFTAATTAALGSKLVKHIPAPASASTPQGAANRFGVHAAAATTKTGPHAAPASRQAAKSTNGTPARSTLRNSHERGRVETRRADRGSHPPMMAPPGNSTYSAYYNPLQMSGGSRNASCELSLKQTAGCSDVVPQHARNVSKSKPRTTEPQDDMEEASLPDSMEDCDASQPYVAPLDLSVIKK | not soluble |
